In the Human Domainome abundance scans (Beltran et al. 2025):
± gives the uncertainty stated by the source.

B1: Max-interacting protein 1, residues 70 to 120; numbered along this chain, P50539 (parent)
chain: STHNELEKNRRAHLRLCLERLKVLIPLGPDCTRHTTLGLLNKAKAHIKKLE

Variants of: B1
Assay: abundance fitness (aPCA) (normalised: wild type 0, dead -1); higher = more abundant; growth selection in yeast, the domain comes from the species named
Settings: Homo sapiens

Abundance fitness of substitutions, site by site:
C31: W 0.19 ± 0.091; D -0.136 ± 0.14; G 0.027 ± 0.072; Q 0.072 ± 0.12; F 0.007 ± 0.13; R 0.203 ± 0.08; Y -0.13 ± 0.12; M -0.087 ± 0.12; E -0.206 ± 0.1; K 0.334 ± 0.12; N 0.185 ± 0.14; L 0 ± 0.098; V 0.145 ± 0.079; S 0.168 ± 0.092; P 0.053 ± 0.13; A 0.106 ± 0.081; H 0.308 ± 0.15; I 0.167 ± 0.13; T -0.034 ± 0.12
L24: T -0.455 ± 0.13; H -0.139 ± 0.15; D -1 ± 0.17; I 0.137 ± 0.23; S -0.391 ± 0.11; W 0.244 ± 0.11; Q -0.569 ± 0.21; K -0.294 ± 0.14; R 0.013 ± 0.079; M -0.292 ± 0.16; C -0.013 ± 0.13; V -0.193 ± 0.087; G -0.461 ± 0.093; F -0.277 ± 0.15; E -0.751 ± 0.15; A -0.329 ± 0.099; P -0.938 ± 0.29; N -0.715 ± 0.21
R15: C -0.801 ± 0.23; G -0.383 ± 0.091; K 0.143 ± 0.12; W -0.27 ± 0.13; F -0.269 ± 0.12; H -0.462 ± 0.23; D -0.749 ± 0.16; V -0.678 ± 0.11; Y -0.941 ± 0.19; N -0.777 ± 0.17; Q -0.369 ± 0.13; M -0.462 ± 0.17; A -0.211 ± 0.11; S -0.231 ± 0.11; L -0.432 ± 0.1; P -0.21 ± 0.13; E -0.476 ± 0.12; T -0.407 ± 0.13
L14: Y 0.111 ± 0.15
C17: P -0.232 ± 0.11; G -0.402 ± 0.1; Y -0.284 ± 0.14; V 0.061 ± 0.092; M 0.123 ± 0.11; R -0.729 ± 0.089; S -0.641 ± 0.1; T -0.666 ± 0.13; N -0.536 ± 0.28; H -0.683 ± 0.25; A -0.193 ± 0.11; F 0.048 ± 0.14; I -0.617 ± 0.23; Q -0.635 ± 0.16; E -0.681 ± 0.17; L 0.101 ± 0.083
D30: V 0.223 ± 0.079; F 0.036 ± 0.077; T 0.128 ± 0.077; L 0.183 ± 0.071; A 0.095 ± 0.077; P 0.128 ± 0.076; N 0.229 ± 0.085; C -0.07 ± 0.084; K 0.213 ± 0.11; Y -0.007 ± 0.077; S 0.279 ± 0.07; M 0.118 ± 0.098; W 0.034 ± 0.11; R 0.178 ± 0.079; G 0.178 ± 0.087; E -0.134 ± 0.12; I 0.151 ± 0.084; H 0.031 ± 0.078; Q 0.147 ± 0.089
V23: L 0.128 ± 0.092; K 0.547 ± 0.13; Q 0.123 ± 0.16; C 0.287 ± 0.1; M 0.064 ± 0.11; F -0.191 ± 0.13; I -0.218 ± 0.12; H 0.455 ± 0.13; T 0.274 ± 0.12; D -0.127 ± 0.12; S 0.317 ± 0.093; Y -0.062 ± 0.14; G 0.355 ± 0.084; E 0.096 ± 0.17; R 0.316 ± 0.095; A 0.488 ± 0.11; N 0.313 ± 0.2
L21: G -0.957 ± 0.1; C -0.503 ± 0.14; N -1.17 ± 0.3; M -0.358 ± 0.15; H -0.335 ± 0.47; K -0.739 ± 0.2; E -0.931 ± 0.18; P -0.978 ± 0.22; F -0.398 ± 0.16; R -1.05 ± 0.1; S -0.915 ± 0.12; A -0.547 ± 0.11; D -1.23 ± 0.28; T -0.832 ± 0.17; W -0.594 ± 0.12; I -0.144 ± 0.17; Q -0.495 ± 0.26; V -0.669 ± 0.1
L18: K -0.515 ± 0.11; F -0.001 ± 0.15; M -0.405 ± 0.12; Y -0.305 ± 0.16; C -0.61 ± 0.13; T -0.824 ± 0.14; Q -1.08 ± 0.18; P -0.542 ± 0.12; R -0.652 ± 0.09; D -0.625 ± 0.2; A -0.275 ± 0.089; I -0.295 ± 0.21; S -0.455 ± 0.1; E -1.07 ± 0.2; H -1.12 ± 0.28
L27: D -0.512 ± 0.22; A -0.006 ± 0.096; S 0.166 ± 0.1; R 0.308 ± 0.084; T 0.074 ± 0.11; P 0.359 ± 0.11; M -0.031 ± 0.12; H -0.146 ± 0.22; E -0.423 ± 0.1; G 0.18 ± 0.082; V -0.009 ± 0.087; I -0.004 ± 0.13; Y -0.39 ± 0.15; C -0.573 ± 0.17; Q -0.149 ± 0.14
T32: A 0.163 ± 0.086; C 0.268 ± 0.12; E -0.354 ± 0.096; Y -0.174 ± 0.16; I 0.139 ± 0.12; V 0.341 ± 0.079; N -0.389 ± 0.17; H -0.168 ± 0.12; Q -0.112 ± 0.16; R -0.137 ± 0.075; K -0.239 ± 0.12; M 0.546 ± 0.12; D -0.387 ± 0.11; L 0.374 ± 0.089; W 0.033 ± 0.095; P -0.303 ± 0.15; S -0.109 ± 0.088; G 0.012 ± 0.074
R20: E -0.929 ± 0.16; D -1.17 ± 0.28; V -0.797 ± 0.13; M -1 ± 0.16; N -0.335 ± 0.28; A -0.677 ± 0.11; G -0.817 ± 0.1; Q -0.405 ± 0.18; Y -0.884 ± 0.17; F -0.971 ± 0.18; P -0.753 ± 0.17; W -0.912 ± 0.15; T -0.377 ± 0.15; H -0.726 ± 0.27; I -1.11 ± 0.23; S -0.576 ± 0.1
P29: R 0.216 ± 0.085; S 0.359 ± 0.092; G -0.119 ± 0.092; N -0.106 ± 0.2; D -0.387 ± 0.17; I 0.506 ± 0.17; K 0.44 ± 0.12; W 0.519 ± 0.11; T 0.177 ± 0.12; M 0.282 ± 0.15; F 0.413 ± 0.14; Y 0.256 ± 0.14; A 0.466 ± 0.11; E -0.296 ± 0.13; C 0.181 ± 0.12; Q 0.028 ± 0.13; L 0.533 ± 0.085; H 0.262 ± 0.16; V 0.401 ± 0.095
G28: H -0.147 ± 0.22; P -0.015 ± 0.13; R 0.122 ± 0.083; K 0.362 ± 0.11; C -0.155 ± 0.12; E -0.38 ± 0.11; V 0.273 ± 0.088; S 0.003 ± 0.085; A -0.284 ± 0.12; W 0.199 ± 0.11; I 0.402 ± 0.12; L -0.142 ± 0.096; Q -0.092 ± 0.11; M 0.074 ± 0.11; Y 0.133 ± 0.15; F 0.069 ± 0.19
K22: E -0.885 ± 0.15; C -0.871 ± 0.18; V -0.926 ± 0.15; F -0.759 ± 0.15; Q -1.02 ± 0.26; N -0.572 ± 0.21; S -0.536 ± 0.11; A -0.903 ± 0.15; I -1.21 ± 0.22; W -1.08 ± 0.15; H -0.651 ± 0.24; R -0.121 ± 0.095; Y -0.884 ± 0.36; D -0.83 ± 0.31; M -0.753 ± 0.13; L -0.639 ± 0.097; P -0.757 ± 0.15; T -0.835 ± 0.14; G -0.611 ± 0.11
L16: A -0.05 ± 0.1; R 0.165 ± 0.089; D -0.037 ± 0.25; M -0.001 ± 0.16; S 0.218 ± 0.1; H -0.55 ± 0.23; V -0.058 ± 0.1; W 0.07 ± 0.1; E 0.102 ± 0.12; P -0.126 ± 0.14; Q 0.16 ± 0.14; C -0.247 ± 0.14; I -0.133 ± 0.19; G 0.274 ± 0.087; K 0.022 ± 0.15; F -0.207 ± 0.18; Y -0.241 ± 0.17; N -0.069 ± 0.17
P26: V -0.628 ± 0.098; I -1.18 ± 0.24; W -0.525 ± 0.11; E -0.138 ± 0.11; H 0.017 ± 0.17; C -0.157 ± 0.13; Q 0.144 ± 0.12; T 0.369 ± 0.12; G 0.278 ± 0.087; D -0.327 ± 0.14; L -0.326 ± 0.095; M 0.074 ± 0.11; Y -0.626 ± 0.23; F -0.557 ± 0.2; S 0.193 ± 0.1; N 0.063 ± 0.28; K 0.441 ± 0.12
R33: L -0.438 ± 0.086; I -0.691 ± 0.15; G -0.257 ± 0.072; P -0.225 ± 0.13; A -0.338 ± 0.096; D -0.644 ± 0.14; T -0.576 ± 0.12; F -0.129 ± 0.12; K -0.117 ± 0.13; M -0.394 ± 0.11; N -0.372 ± 0.15; E -0.667 ± 0.11; C -0.365 ± 0.11; V -0.293 ± 0.079; H -0.247 ± 0.18; Q -0.116 ± 0.12; W -0.075 ± 0.1; S -0.44 ± 0.097
E19: Q -0.185 ± 0.14; P -0.358 ± 0.15; V -0.999 ± 0.11; T -0.532 ± 0.11; I -0.43 ± 0.24; W -0.782 ± 0.13; A -0.23 ± 0.088; M -0.678 ± 0.14; N 0.202 ± 0.16; Y -0.79 ± 0.21; R -0.513 ± 0.096; F -0.623 ± 0.19; S -0.083 ± 0.11; D -0.252 ± 0.2; L -0.791 ± 0.11; K -0.467 ± 0.2; H -0.236 ± 0.17; C -0.618 ± 0.13
I25: W 0.319 ± 0.097; N 0.169 ± 0.13; R -0.521 ± 0.098; L -0.172 ± 0.09; T -0.562 ± 0.13; F -0.141 ± 0.13; M -0.228 ± 0.13; V -0.062 ± 0.088; P -0.334 ± 0.13; D -0.852 ± 0.17; G -0.26 ± 0.11; K -0.995 ± 0.26; C 0.045 ± 0.14; Y -0.309 ± 0.16; E -0.384 ± 0.19; S -0.39 ± 0.091; A -0.584 ± 0.11; Q -0.561 ± 0.17; H -0.744 ± 0.23
